Results from article PMC5601012 (Molecular pharmaceutics, 2017).
Like-named read-outs stand apart in the source and are kept apart here.

What was measured:
[1] = target: T1, programmed death-1 (PD-1) on EL4 cells (mouse (endogenous in EL4), UniProt Q02242); assay: flow cytometry on cells
[2] = target: T1, programmed death-1 (PD-1) on EL4 cells; assay: flow cytometry on cells; remark: listed apart in the source

T1 sequence (Q02242 25-288): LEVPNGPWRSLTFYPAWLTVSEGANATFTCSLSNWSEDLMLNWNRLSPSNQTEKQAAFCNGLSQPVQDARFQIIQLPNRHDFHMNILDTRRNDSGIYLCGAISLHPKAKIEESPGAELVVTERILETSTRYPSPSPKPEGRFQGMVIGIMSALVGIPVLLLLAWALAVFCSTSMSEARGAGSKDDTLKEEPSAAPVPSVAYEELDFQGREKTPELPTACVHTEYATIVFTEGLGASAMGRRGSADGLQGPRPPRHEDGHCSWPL

| Binder | EC50 [1] [µM] | EC50 [2] [µM] |
| --- | --- | --- |
| αPD-1 scFv, NH2-Histag(H6)-(GGGSG)3-VH-(GGGSG)4-VL-COOH (scFv, V domains shown) VH: EVQLQESGPGLVKPSQSLSLTCSVTGYSITSSYRWNWIRKFPGNRLEWMGYINSAGISNYNPSLKRRISITRDTSKNQFFLQVNSVTTEDAATYYCARSDNMGTTPFTYWGQGTLVTVSS VL: DIVMTQGTLPNPVPSGESVSITCRSSKSLLYSDGKTYLNWYLQRPGQSPQLLIYWMSTRASGVSDRFSGSGSGTDFTLKISGVEAEDVGIYYCQQGLEFPTFGGGTKLELK | 4.16 | 0.32 |
| intact anti-programmed death-1 antibody (αPD-1), clone RMP1-14 (antibody, V domains shown) VH: EVQLQESGPGLVKPSQSLSLTCSVTGYSITSSYRWNWIRKFPGNRLEWMGYINSAGISNYNPSLKRRISITRDTSKNQFFLQVNSVTTEDAATYYCARSDNMGTTPFTYWGQGTLVTVSS VL: DIVMTQGTLPNPVPSGESVSITCRSSKSLLYSDGKTYLNWYLQRPGQSPQLLIYWMSTRASGVSDRFSGSGSGTDFTLKISGVEAEDVGIYYCQQGLEFPTFGGGTKLELK | 1.32 | – |
